{
  "source": "patent US20140005126A1",
  "about": "(ISOGENICA, published 2014)",
  "key": {"human serum albumin [1]": {"biological_target": "T1, human serum albumin (human, UniProt P02768 25-609)", "T1 construct": "also called HSA", "T1 sequence (P02768 25-609 limits assumed)": "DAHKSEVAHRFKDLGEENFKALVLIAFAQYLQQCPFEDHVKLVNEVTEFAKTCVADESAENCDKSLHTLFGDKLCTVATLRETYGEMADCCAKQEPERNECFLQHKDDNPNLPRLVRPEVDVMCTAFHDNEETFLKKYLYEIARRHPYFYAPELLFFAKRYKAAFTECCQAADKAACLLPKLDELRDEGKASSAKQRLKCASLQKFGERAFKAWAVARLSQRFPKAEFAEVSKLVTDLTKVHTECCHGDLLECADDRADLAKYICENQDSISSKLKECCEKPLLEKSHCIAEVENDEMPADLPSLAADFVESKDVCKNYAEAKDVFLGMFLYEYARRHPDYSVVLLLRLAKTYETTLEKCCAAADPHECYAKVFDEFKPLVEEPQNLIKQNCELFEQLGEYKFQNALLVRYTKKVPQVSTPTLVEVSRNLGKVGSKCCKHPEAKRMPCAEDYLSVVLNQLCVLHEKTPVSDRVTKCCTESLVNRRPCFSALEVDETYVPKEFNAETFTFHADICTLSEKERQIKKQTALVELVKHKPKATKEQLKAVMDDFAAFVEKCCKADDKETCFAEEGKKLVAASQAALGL", "assay": "phage ELISA for specificity: 50 ng of each protein coated per well, absorbance at 450 nm; six bars per clone in the order of the legend: VEGFR2, human IgG, monoclonal antibody, enzyme, HSA, blocked well", "protocol": "(§1) ELISAs were then performed to screen for modified WW domain peptides that bind to the target ligand. NUNC Maxisorp plates were coated with 50 ng per well of VEGFR2 in PBS overnight at 4° C. After blocking the plates with PBS, 2% BSA, 0.1% Tween-20, phage displaying the selected clones were added, diluted in blocking buffer, and incubated for 1 hour. WW domain binders were detected using horseradish peroxidase-conjugated anti-M13 antibody (GE) and SureBlue TMB peroxidase substrate (Insight Biotechnology, Middlesex, UK); and the ELISA signal was read at 450 nm.\nThe specificity of clones selected for binding to VEGFR2 was assayed in an ELISA against a selection of non-target peptides/proteins, as described above. 50 ng of each of the different target and non-target proteins was coated per well of and ELISA plate and each of the modified WW domain peptides was added."}, "human serum albumin [2]": {"biological_target": "T1, human serum albumin", "assay": "phage ELISA: phage-displayed clone on HSA-coated control wells (right bar of each pair), read at 450 nm"}, "VEGFR2-Fc fusion [3]": {"biological_target": "T2, VEGFR2-Fc fusion", "T2 construct": "Bought from R&D Systems", "assay": "biolayer interferometry (Octet Red), peptide on streptavidin sensors, steady state analysis; cyclised WW-B1, steady state analysis", "protocol": "Real-time binding assays between the peptides and VEGFR2-Fc fusion were performed using biolayer interferometry with an Octet Red system (Fortebio, Menlo Park, Calif.). WW peptides were immobilised on streptavidin biosensors (Fortebio) at a concentration of 2 μg/ml in kinetic buffer. Association curves were then detected by incubating the immobilised peptide with […] (1 to 100 nM in kinetic buffer), and dissociations were detected by incubating the sensors in kinetic buffer. All of the peptides from the affinity maturation, bind to VEGFR2 with a similar affinity as WW-B1.\nThe dissociation constant for cyclised WW-B1 binding to VEGFR2 was determined by steady state analysis to be 31 nM±4.8 nM (FIG. 12)."}, "VEGFR2-Fc fusion [4]": {"biological_target": "T2, VEGFR2-Fc fusion", "assay": "biolayer interferometry (Octet Red), biotinylated WW-B1 on streptavidin sensors, VEGFR2-Fc 1 to 100 nM, steady state analysis", "protocol": "Real time binding assays between chemically synthesised clone WW-B1 and VEGFR2-Fc fusion were performed using biolayer interferometry with an Octet Red system (Fortebio, Menlo Park, Calif.). Biotinylated WW-B1 was immobilised to streptavidin biosensors (Fortebio) at a concentration of 50 ng/μl in PBS. Association curves were then detected by incubating WW-B1-coated sensors with different concentrations of VEGFR2 (1 to 100 nM in PBS), and dissociations were detected by incubating the sensors in PBS. The dissociation constant for WW-B1 binding to VEGFR2 was determined by steady state analysis to be 44 nM±1.1 nM (FIG. 5)."}, "VEGFR2-Fc fusion [5]": {"biological_target": "T2, VEGFR2-Fc fusion", "assay": "competition ELISA: inhibition of VEGFR2 binding to coated VEGF by WW-B1-MBP", "protocol": "A competition assay was carried out in which binding of VEGFR2 to VEGF-A (VEGF) was competed by the presence of varying amounts of the selected modified WW domain peptide.\n50 ng human VEGF (R&D Systems, Abingdon, UK) 1 μg/ml in PBS was coated per well onto a Maxisorp plate at 37° C. for 140 minutes. The wells were then blocked with 100 μl PBS containing 2% BSA for 55 minutes at room temperature. 1.25 ng VEGFR2 was preincubated with WW-B1 fused to maltose binding protein (MBP) in 50 μl PBS for 45 minutes at room temperature. The activity of the WW-B1 peptide was tested at serial dilutions from 10 μM to 156.25 nM. 50 μl 4% BSA in PBS was added to the preincubated VEGFR2 with WW-B1-MBP and the whole mixture was then added to the VEGF coated ELISA plate and incubated at room temperature for 55 minutes. The plate was then washed with 3 washes in PBS-Tween and 2 washes in PBS. Next 50 μl/well penta His-HRP (QIAgen, diluted 1:500 in 2% BSA in PBS) was added and the mixture incubated at room temperature for 55 minutes, before washing as before. ELISA signals were detected using SureBlue TMB peroxidase substrate (Insight biotechnology, Middlesex, UK) at 450 nm.\nAs a control, the above process was repeated with wild-type Pin1 WW domain peptide replacing WW-B1. The results are illustrated in FIG. 6."}, "VEGFR2-Fc fusion [6]": {"biological_target": "T2, VEGFR2-Fc fusion", "assay": "phage ELISA: phage-displayed clone on wells coated with 50 ng VEGFR2, anti-M13-HRP, absorbance at 450 nm; control: uncoated blocked wells (light bars)", "protocol": "as §1"}, "Human β-NGF": {"biological_target": "T3, Human β-NGF (human, UniProt P01138 123-240, limits assumed)", "T3 construct": "R&D Systems; It was biotinylated via carboxyl groups for the selection", "T3 sequence (P01138 123-240 limits assumed)": "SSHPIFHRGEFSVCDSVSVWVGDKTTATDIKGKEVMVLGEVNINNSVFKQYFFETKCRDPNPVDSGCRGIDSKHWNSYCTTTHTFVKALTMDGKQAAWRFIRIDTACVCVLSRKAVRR", "assay": "phage ELISA: phage-displayed clone on NGF-coated wells (left bar of each pair), read at 450 nm; control: HSA-coated wells (right bar)"}},
  "note": "Bridges are numbered along the chain shown (N, C = ends). Where no end group is shown, it is not given here. The star is where a group is joined. Biotin = O=C1N[C@H]2[C@H](CS[C@H]2CCCCC(=O)*)N1",
  "data": [
    {"binder": "MADEEKLPPGWCKFWSTAGRVIYINRITGAKQWERPSG (designed binder, not shown: large carriers, also: fused to gpIII (M13 phage display), linker not given here)", "note": "[clone A1, phage-displayed modified Pin1 WW domain peptide]", "values": [
      {"measurement": "binding result", "setting": "human serum albumin [1]", "result": "no binding"}
    ]},
    {"binder": "MADEEKLPPGWGKPWSARGRVTYINLITVAEQWERPS (designed binder)", "note": "[NP-E3]", "values": [
      {"measurement": "binding result", "setting": "human serum albumin [2]", "result": "no binding"}
    ]},
    {"binder": "Biotin-DEEKLPPGWYKMWSSPGRVLYVNDITHAHRWERPEG-NH2 (designed binder, lactam 4-35; SMILES CC[C@H](C)[C@@H]1NC(=O)[C@H](CC(=O)O)NC(=O)[C@H](CC(N)=O)NC(=O)[C@H](C(C)C)NC(=O)[C@H](Cc2ccc(O)cc2)NC(=O)[C@H](CC(C)C)NC(=O)[C@H](C(C)C)NC(=O)[C@H](CCCNC(=N)N)NC(=O)CNC(=O)[C@@H]2CCCN2C(=O)[C@H](CO)NC(=O)[C@H](CO)NC(=O)[C@H](Cc2c[nH]c3ccccc23)NC(=O)[C@H](CCSC)NC(=O)[C@H](CCCCN)NC(=O)[C@H](Cc2ccc(O)cc2)NC(=O)[C@H](Cc2c[nH]c3ccccc23)NC(=O)CNC(=O)[C@@H]2CCCN2C(=O)[C@@H]2CCCN2C(=O)[C@H](CC(C)C)NC(=O)[C@@H](NC(=O)[C@H](CCC(=O)O)NC(=O)[C@H](CCC(=O)O)NC(=O)[C@H](CC(=O)O)NC(=O)CCCC[C@@H]2SC[C@@H]3NC(=O)N[C@@H]32)CCCCNC(=O)CC[C@@H](C(=O)NCC(N)=O)NC(=O)[C@@H]2CCCN2C(=O)[C@H](CCCNC(=N)N)NC(=O)[C@H](CCC(=O)O)NC(=O)[C@H](Cc2c[nH]c3ccccc23)NC(=O)[C@H](CCCNC(=N)N)NC(=O)[C@H](Cc2c[nH]cn2)NC(=O)[C@H](C)NC(=O)[C@H](Cc2c[nH]cn2)NC(=O)[C@H]([C@@H](C)O)NC1=O, also called cyclised WW-B1)", "note": "[cyclic WW-B1 peptide (Glu38 variant), cyclised through amino acids at positions 6 and 38]", "values": [
      {"measurement": "Kd", "setting": "VEGFR2-Fc fusion [3]", "result": 31, "unit": "nM"}
    ]},
    {"binder": "Biotin-MADEEKLPPGWYKMWSSPGRVLYVNDITHAHRWERPSG (designed binder, not fully specified, Modified Pin1 WW domain; also called linear WW-B1; clone WW-B1)", "note": "[WW-B1 VEGFR2 WW domain, chemically synthesised, biotinylated (linear)]", "values": [
      {"measurement": "Kd", "setting": "VEGFR2-Fc fusion [4]", "result": 44, "unit": "nM"}
    ]},
    {"binder": "MADEEKLPPGWYKMWSSPGRVLYVNDITHAHRWERPSG (designed binder, not shown: large carriers, also: fused to gpIII (M13 phage display), linker not given here, also called WW-B1)", "note": "[clones B1 and H1, phage-displayed modified Pin1 WW domain peptide]", "values": [
      {"measurement": "binding result", "setting": "human serum albumin [1]", "result": "no binding"}
    ]},
    {"binder": "MADEEKLPPGWYKMWSSPGRVLYVNDITHAHRWERPSG (designed binder, not shown: large carriers, also: fused to maltose binding protein (MBP), order and linker not given here, also called WW-B1-MBP)", "note": "[WW-B1 fused to maltose binding protein (MBP)]", "values": [
      {"measurement": "EC50", "setting": "VEGFR2-Fc fusion [5]", "result": 76, "unit": "nM"}
    ]},
    {"binder": "MADEEKLPPGWYKMWSSPGRVLYVNDITHAHQWERPSG (designed binder, not shown: large carriers, also: fused to gpIII (M13 phage display), linker not given here)", "note": "[clones E1, E3, H3, C4, E4, G4 and H6, phage-displayed modified Pin1 WW domain peptide]", "values": [
      {"measurement": "binding result", "setting": "human serum albumin [1]", "result": "no binding"}
    ]},
    {"binder": "MAVEEKLPPGWYKMWSSPGRVLYVNDITHAHQWERPSG (designed binder, not shown: large carriers, also: fused to gpIII (M13 phage display), linker not given here)", "note": "[clone B4, phage-displayed modified Pin1 WW domain peptide]", "values": [
      {"measurement": "binding result", "setting": "VEGFR2-Fc fusion [6]", "result": "binds"}
    ]},
    {"binder": "MADEEKLPPGWAVWSPDGRLYYWNSVIVSTRWGRPSC (designed binder, not shown: large carriers, also: fused to gpIII (M13 phage display), linker not given here)", "note": "[clone NP-A12, phage-displayed modified Pin1 WW domain peptide]", "values": [
      {"measurement": "binding result", "setting": "human serum albumin [2]", "result": "no binding"},
      {"measurement": "binding result", "setting": "Human β-NGF", "result": "binds"}
    ]},
    {"binder": "MADEEKLPPGWTVWSPNGRVYYWNSITVARQWERPSG (designed binder, not shown: large carriers, also: fused to gpIII (M13 phage display), linker not given here)", "note": "[clone NP-H8, phage-displayed modified Pin1 WW domain peptide]", "values": [
      {"measurement": "binding result", "setting": "human serum albumin [2]", "result": "no binding"},
      {"measurement": "binding result", "setting": "Human β-NGF", "result": "binds"}
    ]},
    {"binder": "MADEEKLPPGWGKGWSPRGRVWYTNRTTVAAQWERPSG (designed binder, not shown: large carriers, also: fused to gpIII (M13 phage display), linker not given here)", "note": "[clone H4, phage-displayed modified Pin1 WW domain peptide]", "values": [
      {"measurement": "binding result", "setting": "human serum albumin [1]", "result": "no binding"},
      {"measurement": "binding result", "setting": "VEGFR2-Fc fusion [6]", "result": "binds"}
    ]}
  ]
}
